The source of these data is PMC5897352, “Isolation and characterization of a multifunctional flavonoid glycosyltransferase from Ornithogalum caudatum with glycosidase activity” (Scientific Reports, 2018).

Substrate in data set [1]: O=c1cc(-c2ccccc2)oc2cc(O)cc(O)c12
The data set is described as follows: HPLC glucosylation assay, Lineweaver-Burk. It counts as biochemical, Albuca bracteata. Particulars: 1 mM UDP-Glc fixed, phosphate buffer pH 8.0, 50 °C, apparent Km.

Substrate in data set [2]: O=[N+]([O-])c1ccccc1O[C@@H]1O[C@H](CO)[C@H](O)[C@H](O)[C@H]1O
The data set is described as follows: HPLC hydrolysis assay (o-nitrophenol release), Lineweaver-Burk. It counts as biochemical, Albuca bracteata. To be noted: no UDP or UDP-sugar, phosphate buffer (pH 6.0 in methods, optimum pH 7), 37 °C.

B1: OcUGT1 (Albuca bracteata) (protein)
chain: MGSEAHGALHILFFPLMAPGHMLPMVDMAKLFAARGLKPTIFTTPGNVRLIQPSIDNANGSGHQNPIQLFTVPFPSIDGIPDGCENLSSVTQELHVKFFVGLGNLREPFKDSLARLRPDCIVSDMFLPWTADEAAERGMPRLVFHGSNFFTQCAYRSIEHHKVLESLAPGEDTFVIPGLPHRVELRRSTMPDIQTFAPELMDIILQTREAELKSLGTVMNTFYELEPDYADHFCNVMGRRAWNIGPLSLCNKDVADKWRRGNEASITSEFCLNWLDSQEPSSVVYVCFGSLSDFTTAQLREIAAGLEASGRPFVWVVRNHSEEWIPEGLEERVGGKGLIIRGWAPQILILSHVAVGGFLTHCGWNSILEGVSAGLPFVTWPLFADQFYNERLIVDVLKIGVAVGSNEYANKPEERKIIEAAKIEATINELMGDGKDADERREKARALGELAQRAVEKGGSSYRDLDNLISELVEKRSAV
notes: full-length ORF of 1440 bp (479 residues by ORF length)
In the case of B1, the values for the Km in data set [1] and in data set [2] were 0.1506 ± 0.0139 mM and 6.897 ± 1.995 mM, respectively.

In general, Km refers to the concentration of substrate that gives half-maximal velocity.
